32 variants from the RNAGym collection of RNA variant scans (doi:10.7554/elife.80360) can be followed below.

B1: HDV Ribozyme (parent)
chain: GGCCGGCAUGGUCCCAGCCUCCUCGCUGGCGCCGGCUGGGCAACAUUCCGAGGGGACCGUCCCCUCGGUAAUGGCGAAUGGGACCCA

This data set covers variants of B1. The data set is described as follows: self-cleavage, relative activity (ratio to wild type); higher = more cleavage; co-transcriptional.
With GGCCGGCAUGGUCCCAGCCUCCUCGCUGGCGCCGGCUGGGCAACAUUCCGAGGGCACCGUCCACUCGGUAAUGGCGAAUGGGACCCA, the self-cleavage was found to be 1.06.

For GGCCGGCAUGGUCCCAGCCUCCUCGCUGGCGCCGGCUGGGCAACAUUCCGAGGGAACCGUACCCUCGGUAAUGGCGAAUGGGACCCA, the self-cleavage was 0.956.

Consider GGCCGGCAUGGUCCCAGCCUCCUCGCUGGCGCCGGCUGGGCAACAUUCCGAGGGAACCGUGCCCUCGGUAAUGGCGAAUGGGACCCA, for which the self-cleavage was 1.06.

In the case of GGCCGGCAUGGUCCCAGCCUCCUCGCUGGCGCCGGCUGGGCAACAUUCCGAGGGACCCGUCCCCUCGGUAAUGGCGAAUGGGACCCA, the self-cleavage is 0.895.

In the case of GGCCGGCAUGGUCCCAGCCUCCUCGCUGGCGCCGGCUGGGCAACAUUCCGAGGUGACCGUCCCCUUGGUAAUGGCGAAUGGGACCCA, the self-cleavage is 0.914.

For the variant GGCCGGCAUGGUCCCAGCCUCCUCGCUGGCGCCGGCUGGGCAACAUUCCGAGGGAACCGUCCCCUCGGUAAUGGCGAAUGGGACACA, the self-cleavage amounted to 1.02.

Turning to GGCCGGCAUGGUCCCAGCCUCCUCGCUGGCGCCGGCUGGGCAACAUUCCGAGGGAACCGUCCCCUCGGUAAUGGCGAAUGGGACUCA, the self-cleavage stood at 0.885.

Turning to GGCCGGCAUGGUCCCAGCCUCCUCGCUGGCGCCGGCUGGGCAACAUUCCGAGGGAACCGUCCUCUCGGUAAUGGCGAAUGGGACCCA, the self-cleavage was determined as 0.913.

As to GGCCGGCAUGGUCCCAGCCUCCUCGCUGGCGCCGGCUGGGCAACAUUCCGAGGGAACCGCCCCCUCGGUAAUGGCGAAUGGGACCCA, the self-cleavage is 0.9.

For the variant GGCCGGCAUGGUCCCAGCCUCCUCGCUGGCGCCGGCUGGGCAACAUUCCGAGGUGACCGUCCCCUCGGUCAUGGCGAAUGGGACCCA, the self-cleavage came to 0.515.

With GGCCGGCAUGGUCCCAGCCUCCUCGCUGGCGCCGGCUGGGCAACAUUCCGAGGGCACCGUCUCCUCGGUAAUGGCGAAUGGGACCCA, the self-cleavage worked out at 0.946.

Turning to GGCCGGCAUGGUCCCAGCCUCCUCGCUGGCGCCGGCUGGGCAACAUUCCGAGGUGUCCGUCCCCUCGGUAAUGGCGAAUGGGACCCA, the self-cleavage is 0.953.

On to GGCCGGCAUGGUCCCAGCCUCCUCGCUGGCGCCGGCUGGGCAACAUUCCGAGGUGACCGUCACCUCGGUAAUGGCGAAUGGGACCCA, for which the self-cleavage was 0.99.

Take GGCCGGCAUGGUCCCAGCCUCCUCGCUGGCGCCGGCUGGGCAACAUUCCGAGGUGACCGUCCCCUCGGUAAUGGCGAAUGGGAGCCA: the self-cleavage is 0.529.

As for GGCCGGCAUGGUCCCAGCCUCCUCGCUGGCGCCGGCUGGGCAACAUUCCGAGGUGACCGUCCCCUCGGUAAUGGCGAAUGGGAACCA, the self-cleavage is 0.724.

GGCCGGCAUGGUCCCAGCCUCCUCGCUGGCGCCGGCUGGGCAACAUUCCGAGGUGACCGUCCCCUCGGUAAUGGCGAAUGGGAUCCA: the self-cleavage stood at 0.808.

For GGCCGGCAUGGUCCCAGCCUCCUCGCUGGCGCCGGCUGGGCAACAUUCCGAGGGAACCGUCCCCUCGGUAAUGGCGAACGGGACCCA, the self-cleavage is 0.511.

In the case of GGCCGGCAUGGUCCCAGCCUCCUCGCUGGCGCCGGCUGGGCAACAUUCCGAGGGAACCGUCCCUUCGGUAAUGGCGAAUGGGACCCA, the self-cleavage was 1.04.

For GGCCGGCAUGGUCCCAGCCUCCUCGCUGGCGCCGGCUGGGCAACAUUCCGAGGGAAUCGUCCCCUCGGUAAUGGCGAAUGGGACCCA, the self-cleavage stood at 0.925.

In the case of GGCCGGCAUGGUCCCAGCCUCCUCGCUGGCGCCGGCUGGGCAACAUUCCGAGGUGACCUUCCCCUCGGUAAUGGCGAAUGGGACCCA, the self-cleavage is 1.14.

Consider GGCCGGCAUGGUCCCAGCCUCCUCGCUGGCGCCGGCUGGGCAACAUUCCGAGGUGACCAUCCCCUCGGUAAUGGCGAAUGGGACCCA, for which the self-cleavage turned out to be 1.

With GGCCGGCAUGGUCCCAGCCUCCUCGCUGGCGCCGGCUGGGCAACAUUCCGAGGGAACCGUCCCCUCGGUAAUGUCGAAUGGGACCCA, the self-cleavage is 0.541.

For GGCCGGCAUGGUCCCAGCCUCCUCGCUGGCGCCGGCUGGGCAACAUUCCGAGGUGACCGUCCCCUCGGUAAUGGGGAAUGGGACCCA, the self-cleavage turned out to be 0.114.

Turning to GGCCGGCAUGGUCCCAGCCUCCUCGCUGGCGCCGGCUGGGCAACAUUCCGAGGUGACCGUCCCCUCGGUAAUGGCGGAUGGGACCCA, the self-cleavage stood at 0.878.

With GGCCGGCAUGGUCCCAGCCUCCUCGCUGGCGCCGGCUGGGCAACAUUCCGAGGUGACCGUCCCCUCGGUAAUGGCGUAUGGGACCCA, the self-cleavage turned out to be 0.688.

GGCCGGCAUGGUCCCAGCCUCCUCGCUGGCGCCGGCUGGGCAACAUUCCGAGGUGACCGUCCCCUCGGUAAUGGCGAAUGGGACCUA: the self-cleavage came to 0.882.

In the case of GGCCGGCAUGGUCCCAGCCUCCUCGCUGGCGCCGGCUGGGCAACAUUCCGAGGUGACCGUCCCCUCGGUAAUGGCGAAUGGGACCGA, the self-cleavage was determined as 1.01.

As to GGCCGGCAUGGUCCCAGCCUCCUCGCUGGCGCCGGCUGGGCAACAUUCCGAGGUGACCGUCCCCUCGGUAAUGGCGAAUGGGACCAA, the self-cleavage was found to be 0.799.

As to GGCCGGCAUGGUCCCAGCCUCCUCGCUGGCGCCGGCUGGGCAACAUUCCGAGGGAACCCUCCCCUCGGUAAUGGCGAAUGGGACCCA, the self-cleavage is 1.06.

Consider GGCCGGCAUGGUCCCAGCCUCCUCGCUGGCGCCGGCUGGGCAACAUUCCGAGGUUACCGUCCCCUCGGUAAUGGCGAAUGGGACCCA, for which the self-cleavage is 0.921.

For GGCCGGCAUGGUCCCAGCCUCCUCGCUGGCGCCGGCUGGGCAACAUUCCGAGGGAACCGUCCCCUCGGUAAUGGCGAAUGGGACCUA, the self-cleavage was found to be 0.989.

With GGCCGGCAUGGUCCCAGCCUCCUCGCUGGCGCCGGCUGGGCAACAUUCCGAGGGAACCGUCCCCUCGGUAAUGGCGAAUGGUACCCA, the self-cleavage amounted to 0.241.
